Data reported in the nanobody polyreactivity screen of Harvey et al. (2022).

Assay: yeast display, Sf9 membrane polyspecificity reagent, FACS + sequencing; frameworks hold sequencing errors
Summary of the method: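 Galactose-induced (36–48 hours) yeast carrying a synthetic nanobody display library were exposed to 10% biotinylated, detergent-solubilized Sf9 membrane reagent at 4 °C for 1 hour. FACS followed streptavidin microbead enrichment, using low and high (top ~1%) gates for expression (anti-HA) and reagent binding (streptavidin). Colony PCR, MiSeq 2 × 250 sequencing and CDR-length filtering followed. Labels for polyreactivity reflect the gate of origin.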
With “QVQLVESGGGLVQAGGSLRLSCAASGRTFYTNAMGWYRQAPGKERELVAAITRGGTTYYADSVKGRFTISRDNAKNTVYLQMNSLKPVDTAVYYCAADTESIVATDLIRKYDYWGQGTQVTVSS” the “polyreactivity (PSR sort gate)” value was “low polyreactivity”. In the case of “QVQLVESGGGLVQAGGSLRLSCAASGRTFYTYAMGWYIQAPGKEREFVAAIRFSGGNTYYADSVKGRFTISRDNAKNTVYLQMKSLKPEDTAVYYCAARRLLYKYWTGGPYDYWGQGTQVTVSS”, the “polyreactivity (PSR sort gate)” value is reported as “high polyreactivity”. For “QVQLVESGGGLVQAGGSLRLSCAASGRTFYTYAMGWYRQAPGKERELVAAITYSGGRTSYADSVKGRFTISRDNAKNTVYLQMNSLKPEDTAVYYCAARTLGRRLDYGYWGQGTQVSVSS”, the “polyreactivity (PSR sort gate)” value was “low polyreactivity”. For “QVQLVESGGGLVQAGGSLRLSCAASGRTFYTYAMGWYRQAPGKERELVATITSGGSTYYGDSVKGRFTISRDNAKNTVYLQMNSLKPEDTAVYYCDVEVFVDYDYWGQGTQVTVSS”, the “polyreactivity (PSR sort gate)” value was “high polyreactivity”. In the case of “QVQLVESGGGLVQAGGSLRLSCAASGRTFYVNAMGWYRQAPGKERELVAGISFSDGSTYYADSVKGRFTISRDNAKNTVYLQMNSLKPEDTAVYYCASVGAFDIYYGYGYWGQGTQVTVSS”, the “polyreactivity (PSR sort gate)” value is reported as “low polyreactivity”. For “QVQLVESGGGLVQAGGSLRLSCAASGRTFYVYTMGWYRQAPGKERELVAAISSGGTTNYADSVKGRFTISRDNAKNTVYLQMNSLKPEDTAVYYCATERGYRYRGPLRVNYDYWGQGTQVTVSS”, the “polyreactivity (PSR sort gate)” value was “low polyreactivity”. With “QVQLVESGGGLVQAGGSLRLSCAASGRTFYWNAMGWYRQAPGKEREFVAAITNTAGYTYYADSVKGRFTISRDNAKNTVYLQMNSLKPEDTAVYYCAKSGNAGYRTYLRDYWGQGTQVTVSS” the “polyreactivity (PSR sort gate)” value was “low polyreactivity”. In the case of “QVQLVESGGGLVQAGGSLRLSCAASGRTFYWYAMGWYRKAPGKERELVAAITSGGSTYYADSVKGRFTISRDNEKNTVYLQMNILKPEDTAVYYCGVDVDWWDGMDYWGQGTQVTVSS”, the “polyreactivity (PSR sort gate)” value is reported as “high polyreactivity”. In the case of “QVQLVESGGGLVQAGGSLRLSCAASGRTFYWYAMGWYRQAPGKERELVAAIRRSGGRTYYADSVKGRFTISRDNAKNTVYLQMNSLKPEDTAVYYCNVAYLRYPGPLDYWGQGTQVTVSS”, the “polyreactivity (PSR sort gate)” value is reported as “high polyreactivity”. For “QVQLVESGGGLVQAGGSLRLSCAASGRTFYWYVMGWYRQAPGKERELVAAITQTGSSTYYADSVKGRFTISRDNAKNTVYLQMNSLKPEDTAVYYCADRLSRNHYEVDYWGQGTQVTVSS”, the “polyreactivity (PSR sort gate)” value was “low polyreactivity”. For “QVQLVESGGGLVQAGGSLRLSCAASGRTFYYAMGWYRPAPGKERELVAGITWSGGSTYYADSVKGRFTISRDNAKNTVYLQMNSLKPEDTAVYYCNAVYRYRTYRYDYWGQGTQVTVSS”, the “polyreactivity (PSR sort gate)” value was “high polyreactivity”. In the case of “QVQLVESGGGLVQAGGSLRLSCAASGRTFYYNAMGWYRQAHGKERQLVADINWSGVRTYYADSVKGRFTISRDNAKNTVYLQMNSLKPEDTAVYYCAARVGPYSLAVDGFKHGYWGQGTQVTVSS”, the “polyreactivity (PSR sort gate)” value is reported as “low polyreactivity”. In the case of “QVQLVESGGGLVQAGGSLRLSCAASGRTFYYNAMGWYRQAPGKERELVAAISASSGRTYYADSVKGRFTISRDNAKNTVYFPMNSLKPEDTAVYYCANRYGGDYTRGYGYWGQGTQVTVSS”, the “polyreactivity (PSR sort gate)” value is reported as “high polyreactivity”. With “QVQLVESGGGLVQAGGSLRLSCAASGRTFYYNAMGWYRQAPGKERELVATISWRGGNTYYADSVKGRFTISRDNAKNTVYLQMNSLKPEDTAVYYCNARTVGWKALTGKYDYWGQGTQVTVSS” the “polyreactivity (PSR sort gate)” value was “high polyreactivity”. With “QVQLVESGGGLVQAGGSLRLSCAASGRTFYYNAMVWYRQAPGKERELVAAITWSGGRTFYADSVKGRFTISRDNAKNTVYLQMNSLKPEDTAVYYCNAYPVFRSYDYWGQGTQVTVSS” the “polyreactivity (PSR sort gate)” value was “high polyreactivity”. For “QVQLVESGGGLVQAGGSLRLSCAASGRTFYYNTMGWYRQAPGKERELVATISRIGGSTYYADSVKGRFTISRDNAKNTVYLQMNSLKPEDTAVYYCAAYVAAYPTGYDYWGQGTQVTVSS”, the “polyreactivity (PSR sort gate)” value was “high polyreactivity”. With “QVQLVESGGGLVQAGGSLRLSCAASGRTFYYYAMGWSRPAPGKERELVAGINSGGSTNYADSVKGRFTISRDNAKNTVYLQMNRLKPEDTAVYYCAVEDLGSEGWGWYKEMDYWGQGTQVTVSS” the “polyreactivity (PSR sort gate)” value was “low polyreactivity”. In the case of “QVQLVESGGGLVQAGGSLRLSCAASGRTFYYYAMGWYRLAPGKERELVAAISNRGGSTYYADSVKGRFTISRDNAKNTVYLQMNCLKPEDTAVYYCARRYSYLYTYGSWGQGPQVTVSS”, the “polyreactivity (PSR sort gate)” value is reported as “high polyreactivity”. With “QVQLVESGGGLVQAGGSLRLSCAASGRTFYYYAMGWYRPAPGKERELVAAITSGGRTYYADSVKGRFTISRDNAKNRVYLQMQSLKPEDTAVYYCAARDFFRYSLGYDYWGQGTQVTVSS” the “polyreactivity (PSR sort gate)” value was “high polyreactivity”. In the case of “QVQLVESGGGLVQAGGSLRLSCAASGRTFYYYAMGWYRQAPGKEREFVAAITYRGDSTNYADSVKGRFTISRDNAKNTVYLQMNSLKPEDTAVYYCAADSPYQIYYYWGQGTQVTVSS”, the “polyreactivity (PSR sort gate)” value is reported as “low polyreactivity”. In the case of “QVQLVESGGGLVQAGGSLRLSCAASGRTFYYYAMGWYRQAPGKEREFVASISYSGARTYYADSVKGRFTISRDNAKNTVYLQVNSLKPEDTAVYYCDAGYPLGGDYWGQGTQVTVSS”, the “polyreactivity (PSR sort gate)” value is reported as “high polyreactivity”. With “QVQLVESGGGLVQAGGSLRLSCAASGRTFYYYAMGWYRQAPGKERELVAAINWSSGSTYYADSVKGRFTISRDNAKNTVYLQMNSLKPEDTAVYYCNAESRWYIIPYGDFDYWGQGTQVTVSS” the “polyreactivity (PSR sort gate)” value was “low polyreactivity”. In the case of “QVQLVESGGGLVQAGGSLRLSCAASGRTFYYYAMGWYRQAPGKERELVAAISSSGGSTYYADSVKGRFTISRDNAKNTVYLQMNSLKPEDTAVYYCNARYGGYRARYTYNYWGQGTQVTVSS”, the “polyreactivity (PSR sort gate)” value is reported as “high polyreactivity”. With “QVQLVESGGGLVQAGGSLRLSCAASGRTFYYYAMGWYRQAPGKERELVADITYSGGSTYYADSVKGRFTISRDNAKNTVYLQMNSLKPEDTAVYYCAARVTVSHWPYYYDSYDYWGQGTQVTVSS” the “polyreactivity (PSR sort gate)” value was “low polyreactivity”. In the case of “QVQLVESGGGLVQAGGSLRLSCAASGRTFYYYAMGWYRQAPGKERELVAGITATGSSTYYADSVKGRFTISRDNAKYTVYLQMNSLKPEDTAVYYCAADGYRIDVYHADYRYDYWGQGTQVTVSS”, the “polyreactivity (PSR sort gate)” value is reported as “low polyreactivity”. In the case of “QVQLVESGGGLVQAGGSLRLSCAASGRTFYYYAMGWYRQAPGKERELVARISYSGSNTYYADSVKGRFTISRDNAKNTVYLQMNSLKPEETAVYYCAAGYLVWRDSATLDYWGQGTQVTVSS”, the “polyreactivity (PSR sort gate)” value is reported as “high polyreactivity”. For “QVQLVESGGGLVQAGGSLRLSCAASGRTFYYYAMGWYRQAPGKERELVASITYYADSVKGRFTISRDNAKNTVYLQMNSLKPEDTAVYYCAAEHKYRYDYWGQGTQVTVSS”, the “polyreactivity (PSR sort gate)” value was “low polyreactivity”. For “QVQLVESGGGLVQAGGSLRLSCAASGRTFYYYAMGWYRQAPGNERELVAAISRGGGTNYADSVKGRFTISRDNAKNTVYLQMNSLKPEDTAVYYCAAARIGPQRYDYWGHGTQVTVSS”, the “polyreactivity (PSR sort gate)” value was “high polyreactivity”. In the case of “QVQLVESGGGLVQAGGSLRLSCAASGRTFYYYTMGWYRQAPGKERELVAAISVSGGSTYYADSVKGRFTISRDNAKNTVYLQMNSLKPEDTAVYYCAAGDGWGRRYYWGQGTQVTVSS”, the “polyreactivity (PSR sort gate)” value is reported as “high polyreactivity”. With “QVQLVESGGGLVQAGGSLRLSCAASGRTFYYYTMGWYRQAPGKERELVAAITWNGGSTYYADSVKGRFTISRDNAKNTVYLQMNSLKPEDTGVYYCIARWTWRYDYWGQGTQVTLSS” the “polyreactivity (PSR sort gate)” value was “high polyreactivity”.
